These results are taken from the Human Domainome abundance scans (Beltran et al. 2025).

Sequences and labels used below:
B1: Ankyrin-3, residues 4094 to 4171; numbered along this chain, Q12955 (parent)
chain: MAIVADHLGLSWTELARELNFSVDEINQIRVENPNSLISQSFMLLKKWVTRDGKNATTDALTSVLTKINRIDIVTLLE

± gives the uncertainty stated by the source.

This series covers variants of B1. Briefly: abundance fitness (aPCA) (normalised: wild type 0, dead -1); higher = more abundant; growth selection in yeast, the domain comes from the species named. The note with it: Homo sapiens.
With MAIVADHLGLSWTELARELNFSVDEINQIRVENPNSLESQSFMLLKKWVTRDGKNATTDALTSVLTKINRIDIVTLLE [I38E], the abundance fitness came out at 0.15 ± 0.075. MAIVADHLGLSWTELARELNFSVDEINQIRVENPNSLDSQSFMLLKKWVTRDGKNATTDALTSVLTKINRIDIVTLLE [I38D]: the abundance fitness was -0.286 ± 0.18. Next, MAIVADHLGLSWTELARELNFSVDEINQIRVENPNSLCSQSFMLLKKWVTRDGKNATTDALTSVLTKINRIDIVTLLE [I38C]: -0.038 ± 0.066. Next, MAIVADHLGLSWTELARELNFSVDEINQIRVENPNSLASQSFMLLKKWVTRDGKNATTDALTSVLTKINRIDIVTLLE [I38A]: -0.02 ± 0.073.

Turning to MAIVADHLGLSWTELARELNFSVDEINQIRVENNNSLISQSFMLLKKWVTRDGKNATTDALTSVLTKINRIDIVTLLE [P34N], the abundance fitness was -0.331 ± 0.2. Next, MAIVADHLGLSWTELARELNFSVDEINQIRVENENSLISQSFMLLKKWVTRDGKNATTDALTSVLTKINRIDIVTLLE [P34E]: -0.24 ± 0.099; MAIVADHLGLSWTELARELNFSVDEINQIRVENVNSLISQSFMLLKKWVTRDGKNATTDALTSVLTKINRIDIVTLLE [P34V]: -1.11 ± 0.21; MAIVADHLGLSWTELARELNFSVDEINQIRVENTNSLISQSFMLLKKWVTRDGKNATTDALTSVLTKINRIDIVTLLE [P34T]: -0.366 ± 0.078. With MAIVADHLGLSWTELARELNFSVDEINQIRVENRNSLISQSFMLLKKWVTRDGKNATTDALTSVLTKINRIDIVTLLE [P34R] the figure was -0.26 ± 0.058. On to MAIVADHLGLSWTELARELNFSVDEINQIRVENMNSLISQSFMLLKKWVTRDGKNATTDALTSVLTKINRIDIVTLLE [P34M], for which the abundance fitness is -0.658 ± 0.14. With MAIVADHLGLSWTELARELNFSVDEINQIRVENSNSLISQSFMLLKKWVTRDGKNATTDALTSVLTKINRIDIVTLLE [P34S] the figure was -0.145 ± 0.05; with MAIVADHLGLSWTELARELNFSVDEINQIRVENWNSLISQSFMLLKKWVTRDGKNATTDALTSVLTKINRIDIVTLLE [P34W], -0.9 ± 0.18; with MAIVADHLGLSWTELARELNFSVDEINQIRVENKNSLISQSFMLLKKWVTRDGKNATTDALTSVLTKINRIDIVTLLE [P34K], -0.561 ± 0.18. Next, MAIVADHLGLSWTELARELNFSVDEINQIRVENQNSLISQSFMLLKKWVTRDGKNATTDALTSVLTKINRIDIVTLLE [P34Q]: -0.067 ± 0.078; MAIVADHLGLSWTELARELNFSVDEINQIRVENGNSLISQSFMLLKKWVTRDGKNATTDALTSVLTKINRIDIVTLLE [P34G]: -0.299 ± 0.066. With MAIVADHLGLSWTELARELNFSVDEINQIRVENFNSLISQSFMLLKKWVTRDGKNATTDALTSVLTKINRIDIVTLLE [P34F] the figure was -0.479 ± 0.18; with MAIVADHLGLSWTELARELNFSVDEINQIRVENHNSLISQSFMLLKKWVTRDGKNATTDALTSVLTKINRIDIVTLLE [P34H], -0.268 ± 0.15; with MAIVADHLGLSWTELARELNFSVDEINQIRVENLNSLISQSFMLLKKWVTRDGKNATTDALTSVLTKINRIDIVTLLE [P34L], -0.874 ± 0.11. Take MAIVADHLGLSWTELARELNFSVDEINQIRVENPGSLISQSFMLLKKWVTRDGKNATTDALTSVLTKINRIDIVTLLE [N35G]: the abundance fitness is -0.065 ± 0.049.

For the variant MAIVADHLGLSWTELARELNFSVDEINQIRVENPPSLISQSFMLLKKWVTRDGKNATTDALTSVLTKINRIDIVTLLE [N35P], the abundance fitness is -0.665 ± 0.12. For the variant MAIVADHLGLSWTELARELNFSVDEINQIRVENPHSLISQSFMLLKKWVTRDGKNATTDALTSVLTKINRIDIVTLLE [N35H], the abundance fitness was -0.266 ± 0.13.

As to MAIVADHLGLSWTELARELNFSVDEINQIRVENPCSLISQSFMLLKKWVTRDGKNATTDALTSVLTKINRIDIVTLLE [N35C], the abundance fitness is -0.212 ± 0.11. Next, MAIVADHLGLSWTELARELNFSVDEINQIRVENPQSLISQSFMLLKKWVTRDGKNATTDALTSVLTKINRIDIVTLLE [N35Q]: -0.077 ± 0.066; MAIVADHLGLSWTELARELNFSVDEINQIRVENPSSLISQSFMLLKKWVTRDGKNATTDALTSVLTKINRIDIVTLLE [N35S]: -0.174 ± 0.058; MAIVADHLGLSWTELARELNFSVDEINQIRVENPLSLISQSFMLLKKWVTRDGKNATTDALTSVLTKINRIDIVTLLE [N35L]: -0.626 ± 0.065. As for MAIVADHLGLSWTELARELNFSVDEINQIRVENPDSLISQSFMLLKKWVTRDGKNATTDALTSVLTKINRIDIVTLLE [N35D], the abundance fitness was -0.053 ± 0.091. Next, MAIVADHLGLSWTELARELNFSVDEINQIRVENPASLISQSFMLLKKWVTRDGKNATTDALTSVLTKINRIDIVTLLE [N35A]: -0.215 ± 0.068; MAIVADHLGLSWTELARELNFSVDEINQIRVENPFSLISQSFMLLKKWVTRDGKNATTDALTSVLTKINRIDIVTLLE [N35F]: -0.499 ± 0.24. Next, MAIVADHLGLSWTELARELNFSVDEINQIRVENPESLISQSFMLLKKWVTRDGKNATTDALTSVLTKINRIDIVTLLE [N35E]: -0.082 ± 0.091. With MAIVADHLGLSWTELARELNFSVDEINQIRVENPWSLISQSFMLLKKWVTRDGKNATTDALTSVLTKINRIDIVTLLE [N35W] the figure was -0.487 ± 0.14. In the case of MAIVADHLGLSWTELARELNFSVDEINQIRVENPYSLISQSFMLLKKWVTRDGKNATTDALTSVLTKINRIDIVTLLE [N35Y], the abundance fitness was -0.307 ± 0.14. With MAIVADHLGLSWTELARELNFSVDEINQIRVENPTSLISQSFMLLKKWVTRDGKNATTDALTSVLTKINRIDIVTLLE [N35T] the figure was -0.018 ± 0.076; with MAIVADHLGLSWTELARELNFSVDEINQIRVENPVSLISQSFMLLKKWVTRDGKNATTDALTSVLTKINRIDIVTLLE [N35V], -0.48 ± 0.079; with MAIVADHLGLSWTELARELNFSVDEINQIRVENPRSLISQSFMLLKKWVTRDGKNATTDALTSVLTKINRIDIVTLLE [N35R], -0.128 ± 0.047. With MAIVADHLGLSWTELARELNFSVDEINQIRVENPISLISQSFMLLKKWVTRDGKNATTDALTSVLTKINRIDIVTLLE [N35I] the figure was -0.337 ± 0.29.
